B1: recombinant human Flt-3 ligand (Flt-3L) (ligand, UniProt P49771 27-184, looked up)
chain: TQDCSFQHSPISSDFAVKIRELSDYLLQDYPVTVASNLQDEELCGGLWRLVLAQRWMERLKTVAGSKMQGLLERVNTEIHFVTKCAFQPPPSCLRFVQTNISRLLQETSEQLVALKPWITRQNFSRCLELQCQPDSSTLPPPWSPRPLEATAPTAPQP
notes: recombinant human Flt-3 ligand, soluble; No catalogue number is printed; also called soluble Flt-3 ligand; 100XFlt-3L; source: bought: R&S Systems (so in the source)

How the values were obtained:
[1] = biological target: human Fms-like tyrosine kinase 3 receptor (Flt-3R), GFP-tagged, on stable HEK-293 cells (HEK-293-hFlt-3R) (human) (UniProt P36888)
[2] = biological target: human Fms-like tyrosine kinase 3 receptor (Flt-3R), GFP-tagged, on stable HEK-293 cells (HEK-293-hFlt-3R) (human) (UniProt P36888); experiment: ELISA; competition on cells: HEK-293-hFlt-3R cells preincubated 1 h with 100-fold excess of nonbiotinylated pUL7 (5 ug/ml), Flt-3L (5 ug/ml), anti-Flt-3R antibody (1:100) or control antibody, washed with MEM, then incubated with 50 ng/ml biotinylated pUL7; HRP-streptavidin, absorbance at 450 nm
[3] = biological target: T1, human Fms-like tyrosine kinase 3 receptor (Flt-3R), GFP-tagged, on stable HEK-293 cells (HEK-293-hFlt-3R) (human, UniProt P36888 27-993); experiment: as above; conditions: one partner purified
T1 construct: human fms-tyrosine kinase 3 (FLT3), GFP-tagged, from plasmid OriGene RG211459, expressed on HEK-293 cells; In the functional rows from RS4;11 cells the receptor was the endogenous human Flt-3R of those cells, not this construct; also called human Flt-3 receptor; source: HEK-293, stably transfected (OriGene plasmid RG211459, G418 selection), on cells
T1 sequence (looked up): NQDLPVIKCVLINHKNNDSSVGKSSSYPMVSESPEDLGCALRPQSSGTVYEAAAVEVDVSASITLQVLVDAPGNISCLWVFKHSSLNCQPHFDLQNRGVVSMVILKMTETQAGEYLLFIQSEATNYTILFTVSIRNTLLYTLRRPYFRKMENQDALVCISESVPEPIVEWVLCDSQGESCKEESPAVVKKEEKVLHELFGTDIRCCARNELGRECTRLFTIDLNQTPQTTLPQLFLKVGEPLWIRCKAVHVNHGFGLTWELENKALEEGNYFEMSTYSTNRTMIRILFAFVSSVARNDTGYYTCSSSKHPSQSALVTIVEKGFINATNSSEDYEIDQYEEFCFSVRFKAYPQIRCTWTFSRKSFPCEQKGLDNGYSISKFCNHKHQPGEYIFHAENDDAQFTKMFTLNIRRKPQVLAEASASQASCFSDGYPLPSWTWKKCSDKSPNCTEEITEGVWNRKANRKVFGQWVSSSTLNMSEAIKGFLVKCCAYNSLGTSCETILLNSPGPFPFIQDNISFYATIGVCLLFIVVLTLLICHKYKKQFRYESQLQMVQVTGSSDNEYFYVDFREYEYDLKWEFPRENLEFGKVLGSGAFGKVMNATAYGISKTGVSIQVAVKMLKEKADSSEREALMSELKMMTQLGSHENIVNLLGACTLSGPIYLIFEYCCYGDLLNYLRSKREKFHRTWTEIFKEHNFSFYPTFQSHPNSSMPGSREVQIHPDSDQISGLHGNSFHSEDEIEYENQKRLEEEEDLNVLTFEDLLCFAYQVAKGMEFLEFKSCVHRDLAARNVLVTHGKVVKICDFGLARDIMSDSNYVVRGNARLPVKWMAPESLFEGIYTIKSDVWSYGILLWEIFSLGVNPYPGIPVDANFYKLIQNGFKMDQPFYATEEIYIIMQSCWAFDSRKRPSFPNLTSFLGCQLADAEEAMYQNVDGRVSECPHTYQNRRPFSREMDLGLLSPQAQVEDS

Row | Molecule | phosphorylation of Akt (immunoblot) in serum-starved RS4;11 cells stimulated with 50 ng/ml pUL7, within 10 min, fold compared to the Fc control [1] | phosphorylation of ERK1/2 (immunoblot) in serum-starved RS4;11 cells stimulated with 50 ng/ml pUL7, within 10 min, fold compared to the Fc control [1] | phosphorylation of Flt-3R (immunoblot) in serum-starved RS4;11 cells stimulated with 50 ng/ml pUL7, within 10 min, fold compared to the Fc control [1] | percent reduction in binding of biotinylated pUL7 (100-fold excess of competitor) [2] | percent reduction in binding of biotinylated pUL7 (100-fold excess of competitor) [3]
1 | purified UL7 (pUL7), recombinant UL7 protein from HCMV TB40E, nonbiotinylated (Fc fusion) | 8 fold | 9 fold | 14 fold | 62% | 
2 | B1 |  |  |  |  | 63%

Source: PMC5915732, “Human Cytomegalovirus Encodes a Novel FLT3 Receptor Ligand Necessary for Hematopoietic Cell Differentiation and Viral Reactivation” (mBio, 2018)
